Four molecules from patent US20220204580A1 (AstraZeneca / MedImmune, published 2022) can be followed below.

Numbered stars: 1 amine (or outer) side, 2 acyl side, 3 side chain; on linkers, the order of the positions; unused ones are H or OH. Bridge positions count the residues as written; N and C are the ends. Square brackets hold non-standard residues; d marks the D form. Side chains are listed from the residue outwards. Ends that are not written are not given here. * marks the point of attachment. C18 diacid = O=C(O)CCCCCCCCCCCCCCCCC(=O)*; γGlu = O=C(O)[C@H](CCC(=O)[*:2])N[*:1]; Aib = CC(C)(N)C(=O)O

Sequences and labels used below:
T1: human calcitonin receptor (human, UniProt P30988 25-474)
T1 sequence (looked up): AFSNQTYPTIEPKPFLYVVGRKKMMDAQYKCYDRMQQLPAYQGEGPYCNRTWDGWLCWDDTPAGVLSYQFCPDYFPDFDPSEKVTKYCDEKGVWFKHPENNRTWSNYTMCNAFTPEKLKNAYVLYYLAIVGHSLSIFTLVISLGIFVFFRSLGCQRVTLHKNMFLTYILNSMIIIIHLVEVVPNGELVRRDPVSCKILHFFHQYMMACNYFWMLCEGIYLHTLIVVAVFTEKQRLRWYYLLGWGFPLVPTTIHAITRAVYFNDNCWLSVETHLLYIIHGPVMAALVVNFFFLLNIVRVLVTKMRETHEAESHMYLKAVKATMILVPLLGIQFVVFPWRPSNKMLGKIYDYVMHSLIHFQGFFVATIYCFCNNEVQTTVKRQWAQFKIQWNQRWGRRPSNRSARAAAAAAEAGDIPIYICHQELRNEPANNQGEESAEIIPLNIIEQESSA

T2: human amylin receptor (calcitonin receptor co-expressed with receptor activity modifying protein, RAMP3) (human, UniProt P30988 25-474; O60896 24-148)
T2 sequence (looked up) 1: T1 sequence (looked up)
T2 sequence (looked up) 2: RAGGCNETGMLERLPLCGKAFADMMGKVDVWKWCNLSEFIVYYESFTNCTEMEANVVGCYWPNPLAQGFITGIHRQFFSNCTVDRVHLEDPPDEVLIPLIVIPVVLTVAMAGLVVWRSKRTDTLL

B1: Peptide 133 (SEQ ID NO: 133) (peptide)
peptide: K([γGlu-C18 diacid])KCNTATCATQRLANFL[Aib]HSSSNFGPILPPTNVGSNTY-NH2
modifications: disulfide 3-8; N-terminus assumed
SMILES: CC[C@H](C)[C@H](NC(=O)[C@@H]1CCCN1C(=O)CNC(=O)[C@H](Cc1ccccc1)NC(=O)[C@H](CC(N)=O)NC(=O)[C@H](CO)NC(=O)[C@H](CO)NC(=O)[C@H](CO)NC(=O)[C@H](Cc1c[nH]cn1)NC(=O)C(C)(C)NC(=O)[C@H](CC(C)C)NC(=O)[C@H](Cc1ccccc1)NC(=O)[C@H](CC(N)=O)NC(=O)[C@H](C)NC(=O)[C@H](CC(C)C)NC(=O)[C@H](CCCNC(=N)N)NC(=O)[C@H](CCC(N)=O)NC(=O)[C@@H](NC(=O)[C@H](C)NC(=O)[C@@H]1CSSC[C@H](NC(=O)[C@H](CCCCN)NC(=O)[C@@H](N)CCCCNC(=O)CC[C@H](NC(=O)CCCCCCCCCCCCCCCCC(=O)O)C(=O)O)C(=O)N[C@@H](CC(N)=O)C(=O)N[C@@H]([C@@H](C)O)C(=O)N[C@@H](C)C(=O)N[C@@H]([C@@H](C)O)C(=O)N1)[C@@H](C)O)C(=O)N[C@@H](CC(C)C)C(=O)N1CCC[C@H]1C(=O)N1CCC[C@H]1C(=O)N[C@H](C(=O)N[C@@H](CC(N)=O)C(=O)N[C@H](C(=O)NCC(=O)N[C@@H](CO)C(=O)N[C@@H](CC(N)=O)C(=O)N[C@H](C(=O)N[C@@H](Cc1ccc(O)cc1)C(N)=O)[C@@H](C)O)C(C)C)[C@@H](C)O
B2: Peptide 131 (SEQ ID NO: 131) (peptide)
peptide: K([γGlu-C18 diacid])KCNTATCATQRLANFL[Aib]HSSHNFGPILPPTNVGSNTY-NH2
modifications: disulfide 3-8; N-terminus assumed
SMILES: CC[C@H](C)[C@H](NC(=O)[C@@H]1CCCN1C(=O)CNC(=O)[C@H](Cc1ccccc1)NC(=O)[C@H](CC(N)=O)NC(=O)[C@H](Cc1c[nH]cn1)NC(=O)[C@H](CO)NC(=O)[C@H](CO)NC(=O)[C@H](Cc1c[nH]cn1)NC(=O)C(C)(C)NC(=O)[C@H](CC(C)C)NC(=O)[C@H](Cc1ccccc1)NC(=O)[C@H](CC(N)=O)NC(=O)[C@H](C)NC(=O)[C@H](CC(C)C)NC(=O)[C@H](CCCNC(=N)N)NC(=O)[C@H](CCC(N)=O)NC(=O)[C@@H](NC(=O)[C@H](C)NC(=O)[C@@H]1CSSC[C@H](NC(=O)[C@H](CCCCN)NC(=O)[C@@H](N)CCCCNC(=O)CC[C@H](NC(=O)CCCCCCCCCCCCCCCCC(=O)O)C(=O)O)C(=O)N[C@@H](CC(N)=O)C(=O)N[C@@H]([C@@H](C)O)C(=O)N[C@@H](C)C(=O)N[C@@H]([C@@H](C)O)C(=O)N1)[C@@H](C)O)C(=O)N[C@@H](CC(C)C)C(=O)N1CCC[C@H]1C(=O)N1CCC[C@H]1C(=O)N[C@H](C(=O)N[C@@H](CC(N)=O)C(=O)N[C@H](C(=O)NCC(=O)N[C@@H](CO)C(=O)N[C@@H](CC(N)=O)C(=O)N[C@H](C(=O)N[C@@H](Cc1ccc(O)cc1)C(N)=O)[C@@H](C)O)C(C)C)[C@@H](C)O
B3: Peptide 132 (SEQ ID NO: 132) (peptide)
peptide: K([γGlu-C18 diacid])KCNTATCATQRLANFL[Aib]HSSPNFGPILPPTNVGSNTY-NH2
modifications: disulfide 3-8; N-terminus assumed
SMILES: CC[C@H](C)[C@H](NC(=O)[C@@H]1CCCN1C(=O)CNC(=O)[C@H](Cc1ccccc1)NC(=O)[C@H](CC(N)=O)NC(=O)[C@@H]1CCCN1C(=O)[C@H](CO)NC(=O)[C@H](CO)NC(=O)[C@H](Cc1c[nH]cn1)NC(=O)C(C)(C)NC(=O)[C@H](CC(C)C)NC(=O)[C@H](Cc1ccccc1)NC(=O)[C@H](CC(N)=O)NC(=O)[C@H](C)NC(=O)[C@H](CC(C)C)NC(=O)[C@H](CCCNC(=N)N)NC(=O)[C@H](CCC(N)=O)NC(=O)[C@@H](NC(=O)[C@H](C)NC(=O)[C@@H]1CSSC[C@H](NC(=O)[C@H](CCCCN)NC(=O)[C@@H](N)CCCCNC(=O)CC[C@H](NC(=O)CCCCCCCCCCCCCCCCC(=O)O)C(=O)O)C(=O)N[C@@H](CC(N)=O)C(=O)N[C@@H]([C@@H](C)O)C(=O)N[C@@H](C)C(=O)N[C@@H]([C@@H](C)O)C(=O)N1)[C@@H](C)O)C(=O)N[C@@H](CC(C)C)C(=O)N1CCC[C@H]1C(=O)N1CCC[C@H]1C(=O)N[C@H](C(=O)N[C@@H](CC(N)=O)C(=O)N[C@H](C(=O)NCC(=O)N[C@@H](CO)C(=O)N[C@@H](CC(N)=O)C(=O)N[C@H](C(=O)N[C@@H](Cc1ccc(O)cc1)C(N)=O)[C@@H](C)O)C(C)C)[C@@H](C)O
B4: Peptide 134 (SEQ ID NO: 134) (peptide)
peptide: K([γGlu-C18 diacid])KCNTATCATQRLANFL[Aib]HSSNNFGPILPPTPVGSNTY-NH2
modifications: disulfide 3-8; N-terminus assumed
SMILES: CC[C@H](C)[C@H](NC(=O)[C@@H]1CCCN1C(=O)CNC(=O)[C@H](Cc1ccccc1)NC(=O)[C@H](CC(N)=O)NC(=O)[C@H](CC(N)=O)NC(=O)[C@H](CO)NC(=O)[C@H](CO)NC(=O)[C@H](Cc1c[nH]cn1)NC(=O)C(C)(C)NC(=O)[C@H](CC(C)C)NC(=O)[C@H](Cc1ccccc1)NC(=O)[C@H](CC(N)=O)NC(=O)[C@H](C)NC(=O)[C@H](CC(C)C)NC(=O)[C@H](CCCNC(=N)N)NC(=O)[C@H](CCC(N)=O)NC(=O)[C@@H](NC(=O)[C@H](C)NC(=O)[C@@H]1CSSC[C@H](NC(=O)[C@H](CCCCN)NC(=O)[C@@H](N)CCCCNC(=O)CC[C@H](NC(=O)CCCCCCCCCCCCCCCCC(=O)O)C(=O)O)C(=O)N[C@@H](CC(N)=O)C(=O)N[C@@H]([C@@H](C)O)C(=O)N[C@@H](C)C(=O)N[C@@H]([C@@H](C)O)C(=O)N1)[C@@H](C)O)C(=O)N[C@@H](CC(C)C)C(=O)N1CCC[C@H]1C(=O)N1CCC[C@H]1C(=O)N[C@H](C(=O)N1CCC[C@H]1C(=O)N[C@H](C(=O)NCC(=O)N[C@@H](CO)C(=O)N[C@@H](CC(N)=O)C(=O)N[C@H](C(=O)N[C@@H](Cc1ccc(O)cc1)C(N)=O)[C@@H](C)O)C(C)C)[C@@H](C)O

One assay has as its target T1, human calcitonin receptor. In words: cell-based or functional assay.
With B1, the “EC50 (cAMP production)” value was 2.58 nM.

Consider B2, for which the “EC50 (cAMP production)” value stood at 15.1 nM.

On to B3, for which the “EC50 (cAMP production)” value was found to be 3.85 nM.

For the molecule B4, the “EC50 (cAMP production)” value was 2.22 nM.

For the next assay, the target named is T2, human amylin receptor (calcitonin …). As to the kind of experiment: cell-based or functional assay.
As for B1, the “EC50 (cAMP production)” value was determined as 0.378 nM and the “Ratio (EC50 hCTR / EC50 hAMYR3)” value stood at 6.8.

B2: the “EC50 (cAMP production)” value was found to be 0.737 nM and the “Ratio (EC50 hCTR / EC50 hAMYR3)” value stood at 20.5.

Consider B3, for which the “EC50 (cAMP production)” value stood at 0.416 nM and the “Ratio (EC50 hCTR / EC50 hAMYR3)” value stood at 9.3.

For B4, the “EC50 (cAMP production)” value is 0.281 nM and the “Ratio (EC50 hCTR / EC50 hAMYR3)” value was determined as 7.9.
